No end group written: not given here.

The target of test [1] is GST-G, GST fusion of the RGG domain of human nucleolin alone (human), P19338. The test can be described thus: dose series 0-10 µM biotinylated HB-19A, avidin-agarose pull-down, anti-GST immunoblot.
The target of test [2] is GST-R1234G, GST fusion of the C-terminal part of human nucleolin (RBDs I-IV and RGG domain) (human) (UniProt P19338). The description is as above.
Test [3] deals with GST-R234G, GST fusion of human nucleolin RBDs II, III, IV and the RGG domain (human) (UniProt P19338). The description is as above.
Chain of GST-R234G, GST fusion of human nucleolin RBDs II, III, IV and the RGG domain (human) (P19338 389-710, stated change not applied): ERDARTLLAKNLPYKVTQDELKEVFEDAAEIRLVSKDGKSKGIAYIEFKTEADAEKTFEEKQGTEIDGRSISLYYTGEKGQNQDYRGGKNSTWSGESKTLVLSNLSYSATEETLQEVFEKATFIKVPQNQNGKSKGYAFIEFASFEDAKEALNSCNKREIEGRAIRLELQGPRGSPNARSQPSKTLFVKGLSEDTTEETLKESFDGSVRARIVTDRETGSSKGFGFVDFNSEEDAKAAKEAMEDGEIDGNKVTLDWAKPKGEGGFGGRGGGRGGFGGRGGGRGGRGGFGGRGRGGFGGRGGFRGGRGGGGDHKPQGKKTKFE
Test [4] has as its target T1, cell-surface-expressed hamster nucleolin (on CHO K1, CHO 677 and CHO 618 cells) (Chinese hamster), A0A8C2.
T1 chain: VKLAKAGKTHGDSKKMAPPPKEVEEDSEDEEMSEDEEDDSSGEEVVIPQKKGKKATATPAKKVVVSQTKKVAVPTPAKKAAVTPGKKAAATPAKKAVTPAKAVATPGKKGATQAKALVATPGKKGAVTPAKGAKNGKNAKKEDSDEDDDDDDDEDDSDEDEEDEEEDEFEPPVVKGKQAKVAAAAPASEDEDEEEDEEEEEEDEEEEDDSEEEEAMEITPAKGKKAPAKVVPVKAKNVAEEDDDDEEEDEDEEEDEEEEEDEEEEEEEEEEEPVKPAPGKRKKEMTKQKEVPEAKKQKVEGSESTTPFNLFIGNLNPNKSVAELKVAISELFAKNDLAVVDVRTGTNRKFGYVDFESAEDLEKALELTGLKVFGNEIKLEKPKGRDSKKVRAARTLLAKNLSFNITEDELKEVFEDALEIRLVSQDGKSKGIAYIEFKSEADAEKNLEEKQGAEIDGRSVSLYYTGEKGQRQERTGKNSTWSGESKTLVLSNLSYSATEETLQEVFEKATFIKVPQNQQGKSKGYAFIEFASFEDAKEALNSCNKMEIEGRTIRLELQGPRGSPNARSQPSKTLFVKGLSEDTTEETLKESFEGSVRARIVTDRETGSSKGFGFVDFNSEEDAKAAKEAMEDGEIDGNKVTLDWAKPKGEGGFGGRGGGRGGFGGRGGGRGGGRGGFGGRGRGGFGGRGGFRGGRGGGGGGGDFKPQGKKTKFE
The test can be described thus: biotinylated HB-19A on wild type CHO K1 cells, streptavidin-HRP.

The target in test [5] is cell-surface-expressed human nucleolin (on HeLa P4 and MT4 cells) (human), P19338. The test can be described thus: 125I-labeled HB-19A on HeLa P4 cell monolayers, wash at 300 mM NaCl.
Chain of cell-surface-expressed human nucleolin (on HeLa P4 and MT4 cells) (human), P19338 (P19338 2-710): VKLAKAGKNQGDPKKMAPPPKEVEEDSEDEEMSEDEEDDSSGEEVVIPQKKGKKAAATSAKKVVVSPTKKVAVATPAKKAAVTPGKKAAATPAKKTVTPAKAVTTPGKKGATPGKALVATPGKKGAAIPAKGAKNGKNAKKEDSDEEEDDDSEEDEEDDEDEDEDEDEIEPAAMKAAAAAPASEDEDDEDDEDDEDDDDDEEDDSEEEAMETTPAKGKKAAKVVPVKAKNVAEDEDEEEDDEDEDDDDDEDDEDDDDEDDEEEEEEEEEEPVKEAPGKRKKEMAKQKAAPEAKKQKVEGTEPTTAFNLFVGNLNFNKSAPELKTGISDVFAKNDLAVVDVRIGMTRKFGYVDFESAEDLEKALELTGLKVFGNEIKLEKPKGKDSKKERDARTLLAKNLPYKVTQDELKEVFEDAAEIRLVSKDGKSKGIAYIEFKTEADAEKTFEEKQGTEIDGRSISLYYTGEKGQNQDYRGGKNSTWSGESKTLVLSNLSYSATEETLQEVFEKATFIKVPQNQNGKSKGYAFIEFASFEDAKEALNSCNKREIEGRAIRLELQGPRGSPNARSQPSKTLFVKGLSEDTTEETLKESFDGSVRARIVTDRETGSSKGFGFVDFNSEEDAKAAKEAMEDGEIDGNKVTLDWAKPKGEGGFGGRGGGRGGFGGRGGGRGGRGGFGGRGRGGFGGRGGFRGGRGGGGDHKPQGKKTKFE

Chain of GST-R1234G, GST fusion of the C-terminal part of human nucleolin (RBDs I-IV and RGG domain) (human) (P19338 308-707, stated change not applied): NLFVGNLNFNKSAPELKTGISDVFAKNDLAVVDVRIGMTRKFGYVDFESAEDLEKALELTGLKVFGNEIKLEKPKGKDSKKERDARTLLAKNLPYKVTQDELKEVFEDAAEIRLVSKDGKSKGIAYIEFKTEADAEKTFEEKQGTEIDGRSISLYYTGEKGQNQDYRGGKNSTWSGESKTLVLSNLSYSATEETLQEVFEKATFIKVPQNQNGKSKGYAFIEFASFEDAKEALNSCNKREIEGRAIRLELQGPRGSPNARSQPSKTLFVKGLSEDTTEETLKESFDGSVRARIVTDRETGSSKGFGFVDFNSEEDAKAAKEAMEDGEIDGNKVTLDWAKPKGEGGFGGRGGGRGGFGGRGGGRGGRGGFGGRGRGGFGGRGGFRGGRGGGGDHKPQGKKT
Chain of GST-G, GST fusion of the RGG domain of human nucleolin alone (human), P19338 (P19338 648-710): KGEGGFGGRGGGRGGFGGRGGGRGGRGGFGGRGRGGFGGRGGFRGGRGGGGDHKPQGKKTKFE

B1: HB-19A, pseudopeptide 5[K-Psi(CH2N)-PR]-TASP with a modified TASP template (peptide)
peptide: Lys-Pro-Arg
chain: KKKKA
modifications: also: reduced amide bond Psi(CH2N) between Lys and Pro in each KPR, five KPR copies on the KKKKA template: alpha-NH2 of the four template Lys and epsilon-NH2 of the N-terminal Lys, template Lys linked through their epsilon-NH2 groups
B1: the HB-19A concentration at maximum binding in test [1], in test [2] and in test [3] was 5 µM each time. Besides, the HB-19A concentration at saturation of binding in test [4] stood at 1 µM. Further, the HB-19A concentration at saturation of specific binding in test [5] was 1 µM.

For the origin of these results see patent US20040002457A1, “Inhibition of virus anchorage by RGG domain of a cell surface-expressed protein, polynucleotide coding for said RGG domain, therapeutic uses thereof by inhibition of microorganism or protein ligand binding to the cell-surface-expressed protein” (priority 2002, published 2004).
